Measurements taken from the Human Domainome abundance scans (Beltran et al. 2025).
± gives the uncertainty stated by the source.

B1: Homeobox protein cut-like 1, residues 941 to 1008; numbered along this chain, P39880 (parent)
chain: QEVDTIELTRQVKEKLAKNGICQRIFGEKVLGLSQGSVSDMLSRPKPWSKLTQKGREPFIRMQLWLNG

Variants of: B1
Assay: abundance fitness (aPCA) (normalised: wild type 0, dead -1); higher = more abundant; growth selection in yeast, the domain comes from the species named
Conditions: Homo sapiens

With C22V as the variant, how does the abundance fitness read?
Its abundance fitness is -0.196 ± 0.052.

Which abundance fitness does the source give for C22S here?
Its abundance fitness is 0.049 ± 0.057.

With C22G as the variant, how does the abundance fitness read?
Its abundance fitness is -0.27 ± 0.053.

For C22T, which abundance fitness is on record?
The abundance fitness was 0.02 ± 0.062.

Which abundance fitness does the source give for T52N here?
Its abundance fitness is -0.009 ± 0.095.

Which abundance fitness does the source give for T52I here?
The abundance fitness was -0.009 ± 0.088.

Which abundance fitness does the source give for T52A here?
The abundance fitness was -0.033 ± 0.065.

With K13N as the variant, how does the abundance fitness read?
The abundance fitness was -0.132 ± 0.097.

With K13A as the variant, how does the abundance fitness read?
Its abundance fitness is -0.339 ± 0.059.

With K13P as the variant, how does the abundance fitness read?
Its abundance fitness is -0.159 ± 0.059.

With K13H as the variant, how does the abundance fitness read?
The abundance fitness was -0.254 ± 0.098.

For K13L, which abundance fitness is on record?
Its abundance fitness is -0.326 ± 0.045.

With K13R as the variant, how does the abundance fitness read?
Its abundance fitness is -0.119 ± 0.056.

Which abundance fitness does the source give for G27Y here?
Its abundance fitness is -0.144 ± 0.11.

Which abundance fitness does the source give for L8R here?
The abundance fitness was -0.01 ± 0.055.

For L8C, which abundance fitness is on record?
Its abundance fitness is -0.205 ± 0.094.

For L8Q, which abundance fitness is on record?
The abundance fitness was -0.032 ± 0.075.

Which abundance fitness does the source give for A17N here?
Its abundance fitness is -0.123 ± 0.17.

Which abundance fitness does the source give for A17Q here?
The abundance fitness was -0.115 ± 0.077.

For G68Q, which abundance fitness is on record?
The abundance fitness was -0.212 ± 0.23.

For G68K, which abundance fitness is on record?
The abundance fitness was -0.091 ± 0.11.

With G68C as the variant, how does the abundance fitness read?
Its abundance fitness is -0.258 ± 0.08.

With L16R as the variant, how does the abundance fitness read?
Its abundance fitness is -0.033 ± 0.056.

Which abundance fitness does the source give for L16E here?
Its abundance fitness is -0.032 ± 0.09.

For S37Q, which abundance fitness is on record?
The abundance fitness was 0.111 ± 0.098.

For S37V, which abundance fitness is on record?
Its abundance fitness is -0.039 ± 0.063.

With S37G as the variant, how does the abundance fitness read?
The abundance fitness was -0.123 ± 0.051.

Which abundance fitness does the source give for R44F here?
The abundance fitness was -0.041 ± 0.09.

For R44N, which abundance fitness is on record?
The abundance fitness was 0.054 ± 0.097.

With R44Q as the variant, how does the abundance fitness read?
The abundance fitness was -0.241 ± 0.085.

For Q63Y, which abundance fitness is on record?
The abundance fitness was -0.069 ± 0.087.

With I25W as the variant, how does the abundance fitness read?
Its abundance fitness is 0.021 ± 0.068.

Which abundance fitness does the source give for E28N here?
Its abundance fitness is -0.134 ± 0.11.

With Q23I as the variant, how does the abundance fitness read?
The abundance fitness was -0.537 ± 0.26.

Which abundance fitness does the source give for Q23G here?
The abundance fitness was -0.28 ± 0.068.

Which abundance fitness does the source give for K29W here?
Its abundance fitness is -0.273 ± 0.072.

Which abundance fitness does the source give for K29E here?
The abundance fitness was 0.039 ± 0.064.

With F59W as the variant, how does the abundance fitness read?
Its abundance fitness is -0.128 ± 0.084.

For V38S, which abundance fitness is on record?
Its abundance fitness is -0.086 ± 0.059.

Which abundance fitness does the source give for V38M here?
Its abundance fitness is -0.147 ± 0.084.

With V38W as the variant, how does the abundance fitness read?
Its abundance fitness is 0.063 ± 0.073.

For E57F, which abundance fitness is on record?
Its abundance fitness is -0.294 ± 0.12.

With Q35V as the variant, how does the abundance fitness read?
The abundance fitness was 0 ± 0.049.

With Q35S as the variant, how does the abundance fitness read?
Its abundance fitness is 0.034 ± 0.062.

Which abundance fitness does the source give for Q35P here?
The abundance fitness was 0.121 ± 0.068.

With I60W as the variant, how does the abundance fitness read?
Its abundance fitness is -0.334 ± 0.075.

For I60A, which abundance fitness is on record?
The abundance fitness was -0.073 ± 0.073.

With G55L as the variant, how does the abundance fitness read?
Its abundance fitness is -0.045 ± 0.044.

For P45G, which abundance fitness is on record?
Its abundance fitness is -0.309 ± 0.07.

For P45M, which abundance fitness is on record?
The abundance fitness was -0.269 ± 0.076.

Which abundance fitness does the source give for E2H here?
The abundance fitness was -0.317 ± 0.032.

With E2D as the variant, how does the abundance fitness read?
Its abundance fitness is -0.283 ± 0.031.

For E2P, which abundance fitness is on record?
The abundance fitness was -0.206 ± 0.028.

For N67R, which abundance fitness is on record?
Its abundance fitness is -0.016 ± 0.06.

With S39A as the variant, how does the abundance fitness read?
The abundance fitness was 0.005 ± 0.056.

Which abundance fitness does the source give for Q11T here?
The abundance fitness was -0.142 ± 0.061.

For Q11I, which abundance fitness is on record?
Its abundance fitness is -0.308 ± 0.099.

For Q11G, which abundance fitness is on record?
The abundance fitness was -0.165 ± 0.057.

For K50D, which abundance fitness is on record?
Its abundance fitness is 0.041 ± 0.12.

With K50C as the variant, how does the abundance fitness read?
Its abundance fitness is -0.07 ± 0.069.

With K50W as the variant, how does the abundance fitness read?
Its abundance fitness is -0.247 ± 0.068.

With K50S as the variant, how does the abundance fitness read?
The abundance fitness was -0.04 ± 0.055.

Which abundance fitness does the source give for W65E here?
Its abundance fitness is -0.968 ± 0.12.

With W65H as the variant, how does the abundance fitness read?
Its abundance fitness is -0.864 ± 0.28.

Which abundance fitness does the source give for W65G here?
The abundance fitness was -1.01 ± 0.1.

For W65P, which abundance fitness is on record?
The abundance fitness was -1.22 ± 0.15.

With Q53V as the variant, how does the abundance fitness read?
The abundance fitness was -0.095 ± 0.05.

With Q53I as the variant, how does the abundance fitness read?
Its abundance fitness is -0.119 ± 0.1.

With Q53W as the variant, how does the abundance fitness read?
Its abundance fitness is -0.173 ± 0.084.

With Q53T as the variant, how does the abundance fitness read?
The abundance fitness was -0.014 ± 0.075.

With Q53P as the variant, how does the abundance fitness read?
Its abundance fitness is 0.031 ± 0.073.

With Q53E as the variant, how does the abundance fitness read?
Its abundance fitness is -0.139 ± 0.061.

For Q53C, which abundance fitness is on record?
Its abundance fitness is 0.012 ± 0.11.

Which abundance fitness does the source give for S43A here?
Its abundance fitness is 0.007 ± 0.061.

Which abundance fitness does the source give for S43H here?
Its abundance fitness is 0.049 ± 0.1.

For L51T, which abundance fitness is on record?
The abundance fitness was -0.745 ± 0.12.

Which abundance fitness does the source give for L51M here?
Its abundance fitness is -0.125 ± 0.095.

With V3F as the variant, how does the abundance fitness read?
The abundance fitness was -0.063 ± 0.073.

With V3T as the variant, how does the abundance fitness read?
The abundance fitness was -0.112 ± 0.085.

For K15V, which abundance fitness is on record?
The abundance fitness was -0.228 ± 0.074.

For K15Y, which abundance fitness is on record?
Its abundance fitness is 0.145 ± 0.096.

For K15Q, which abundance fitness is on record?
Its abundance fitness is -0.119 ± 0.075.

Which abundance fitness does the source give for W48L here?
Its abundance fitness is -0.398 ± 0.047.
